Assay results reported in paper PMC4941050, “Extra-coding RNAs regulate neuronal DNA methylation dynamics”.

Legend:
DNMT3a-CD [1] = molecular target: T1, DNMT3a-CD (mouse, UniProt O88508 608-908); assay: EMSA; 0.2 uM protein; complete binding; 20 mM HEPES, 40 mM KCl, 1 mM EDTA, 0.2 mM DTT, 0.1 mg/ml BSA, 0.1% Tween-20, 20% glycerol; pH not stated; 1 h at 37 C; 1 nM probe; native 4-20% PAGE; conditions: protein: recombinant; label: 5'-Cy5.5; predicted stem-loop
[2] = molecular target: DNMT3a (in DNMT3a/DNMT3l complex);DNMT3l (human;human, UniProt Q9Y6K1;Q9UJW3 1-912;1-386, |); assay: EMSA; 0.2 uM protein; 20 mM HEPES, 40 mM KCl, 1 mM EDTA, 0.2 mM DTT, 0.1 mg/ml BSA, 0.1% Tween-20, 20% glycerol; pH not stated; 1 h at 37 C; 1 nM probe; native 4-20% PAGE
Chain of DNMT3a (in DNMT3a/DNMT3l complex);DNMT3l (Q9Y6K1 whole entry, chain 1 of 2): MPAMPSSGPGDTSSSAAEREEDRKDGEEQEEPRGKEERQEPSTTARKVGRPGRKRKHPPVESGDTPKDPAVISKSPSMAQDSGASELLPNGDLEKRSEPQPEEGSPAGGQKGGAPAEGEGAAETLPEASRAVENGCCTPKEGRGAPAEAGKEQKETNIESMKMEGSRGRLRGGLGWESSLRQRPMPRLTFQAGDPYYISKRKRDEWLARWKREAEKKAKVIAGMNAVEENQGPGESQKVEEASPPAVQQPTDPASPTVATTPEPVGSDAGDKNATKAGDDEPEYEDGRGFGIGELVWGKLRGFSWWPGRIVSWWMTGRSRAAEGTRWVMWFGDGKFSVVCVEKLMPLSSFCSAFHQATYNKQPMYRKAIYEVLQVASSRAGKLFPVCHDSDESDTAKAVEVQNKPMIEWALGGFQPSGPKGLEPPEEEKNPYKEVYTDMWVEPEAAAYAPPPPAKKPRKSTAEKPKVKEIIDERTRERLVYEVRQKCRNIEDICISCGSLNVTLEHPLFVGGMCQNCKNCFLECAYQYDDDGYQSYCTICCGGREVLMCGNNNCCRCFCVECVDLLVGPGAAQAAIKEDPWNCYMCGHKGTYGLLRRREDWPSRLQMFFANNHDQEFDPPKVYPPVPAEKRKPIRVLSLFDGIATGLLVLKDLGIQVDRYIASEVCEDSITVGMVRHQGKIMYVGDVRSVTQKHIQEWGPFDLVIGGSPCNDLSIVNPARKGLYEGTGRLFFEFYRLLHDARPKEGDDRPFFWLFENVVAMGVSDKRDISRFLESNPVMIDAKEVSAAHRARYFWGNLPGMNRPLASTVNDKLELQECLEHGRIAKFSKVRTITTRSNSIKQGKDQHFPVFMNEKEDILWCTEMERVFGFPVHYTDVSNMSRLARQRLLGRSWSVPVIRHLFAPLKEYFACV
Chain of DNMT3a (in DNMT3a/DNMT3l complex);DNMT3l (Q9UJW3 whole entry, chain 2 of 2): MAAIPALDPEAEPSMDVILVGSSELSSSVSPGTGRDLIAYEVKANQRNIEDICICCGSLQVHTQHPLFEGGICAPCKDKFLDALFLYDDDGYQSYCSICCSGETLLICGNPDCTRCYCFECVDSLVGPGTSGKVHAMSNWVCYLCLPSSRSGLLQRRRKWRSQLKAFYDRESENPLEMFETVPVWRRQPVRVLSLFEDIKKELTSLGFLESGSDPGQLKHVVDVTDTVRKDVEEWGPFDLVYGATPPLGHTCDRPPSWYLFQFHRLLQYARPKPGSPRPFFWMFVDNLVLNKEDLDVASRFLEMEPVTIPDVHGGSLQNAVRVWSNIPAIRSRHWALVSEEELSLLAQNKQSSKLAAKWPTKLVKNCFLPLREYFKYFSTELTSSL

DNMT3a-CD [3] = molecular target: T1, DNMT3a-CD; assay: EMSA; DNMT3a-CD 0.002-0.2 uM; value only in figure, text: low nanomolar, same as dsDNA (P=0.49); 20 mM HEPES, 40 mM KCl, 1 mM EDTA, 0.2 mM DTT, 0.1 mg/ml BSA, 0.1% Tween-20, 20% glycerol; pH not stated; 1 h at 37 C; 1 nM probe; native 4-20% PAGE; conditions: protein: recombinant; label: 5'-Cy5.5; predicted stem-loop
DNMT3a-CD [4] = molecular target: T1, DNMT3a-CD; assay: competition EMSA; vs 1 nM Cy5.5-ecRNA-1; competitor 1-100 nM; 20 mM HEPES, 40 mM KCl, 1 mM EDTA, 0.2 mM DTT, 0.1 mg/ml BSA, 0.1% Tween-20, 20% glycerol; pH not stated; 1 h at 37 C; 1 nM probe; native 4-20% PAGE; conditions: protein: recombinant; chain copies: 2; blunt
DNMT3a-CD [5] = molecular target: T1, DNMT3a-CD; assay: EMSA; binding not altered; 20 mM HEPES, 40 mM KCl, 1 mM EDTA, 0.2 mM DTT, 0.1 mg/ml BSA, 0.1% Tween-20, 20% glycerol; pH not stated; 1 h at 37 C; 1 nM probe; native 4-20% PAGE; conditions: protein: recombinant; label: 5'-Cy5.5; unstructured (predicted)
DNMT3a-CD [6] = molecular target: T1, DNMT3a-CD; assay: EMSA; binding not impaired; 20 mM HEPES, 40 mM KCl, 1 mM EDTA, 0.2 mM DTT, 0.1 mg/ml BSA, 0.1% Tween-20, 20% glycerol; pH not stated; 1 h at 37 C; 1 nM probe; native 4-20% PAGE; conditions: protein: recombinant; label: 5'-Cy5.5; unstructured (predicted)

T1 sequence (O88508 608-908): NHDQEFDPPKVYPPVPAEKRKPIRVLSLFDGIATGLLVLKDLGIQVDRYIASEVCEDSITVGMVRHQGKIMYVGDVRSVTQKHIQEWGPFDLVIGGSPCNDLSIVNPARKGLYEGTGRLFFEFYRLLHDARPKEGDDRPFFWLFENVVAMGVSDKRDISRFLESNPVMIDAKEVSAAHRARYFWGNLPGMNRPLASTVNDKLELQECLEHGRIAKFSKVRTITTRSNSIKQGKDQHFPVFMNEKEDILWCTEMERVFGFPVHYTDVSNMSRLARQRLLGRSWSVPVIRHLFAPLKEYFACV

## GUCUGUGCACCGUGUGCAUAUACAG (ssRNA) [ecRNA-2]
DNMT3a-CD [1]
  binding result: binds
[2]
  binding result: binds

## GGGGACACGCCCUCUGUUCCCUUAU (ssRNA) [ecRNA-1]
DNMT3a-CD [3]
  binding result: binds
[2]
  binding result: binds

B1: ecDNA-1 unlabelled competitor (dsDNA)
DNA 1: GGGGACACGCCCTCTGTTCCCTTAT
DNA 2: ATAAGGGAACAGAGGGCGTGTCCCC
DNMT3a-CD [4]
  IC50: > 20 fold excess over 1 nM ecRNA-1

## GAUGAUCCUGCCUUGAAGUGACGCU (ssRNA) [mutant ecRNA-2]
DNMT3a-CD [5]
  binding result: binds

## GUCGACACGCCCUCUGUUCCGUUAG (ssRNA) [mutant ecRNA-1]
DNMT3a-CD [6]
  binding result: binds
